In patent US12390491B2, “Compositions and methods for providing chemoprotective effects” (GTECH BIO LLC, priority 2020, dated 2025):

How the values were obtained:
Assay type in all cases: cell-based
[1] = tested on: Jurkat, CEM and TF-1a cells; assay: Cell survival and proliferation (Nucleocounter NC-200, flow cytometry with PI and 7-AAD)
Procedure: Jurkat, CEM, and Tf-1a cell lines were transduced with a lentiviral vector that expresses GCLM and green fluorescent protein (GFP) genes. Chemoprotection experiments were performed by incubating untransduced or mixed populations of (20% transduced, 80% untransduced) cells with busulfan in concentrations ranging from 0 to 200 μg/ml for 1, 2 or 4 hours. Cells were then incubated in busulfan-free culture for 24, 48, 72 and 96 h. Area under the concentration-time curve (AUC) was estimated by using trapezoidal rule from different times and concentrations of incubation. Pre- and post-exposure GSH levels were measured with fluorometric assays. Cell survival and proliferation at different time-points were measured by Nucleocounter NC-200 and flow cytometry using PI and 7-AAD staining protocols. The chemoselection of protected GFP+ cells were evaluated by flow cytometry. Baseline GSH levels and GCLM expression were also measured in primary human HSPCs harvested from 3 different donors with fluorometric and RT-PCR assays. […]
(§1) Jurkat, CEM, and TF-1a cell lines were transduced with a lentiviral vector that expresses GCLM and green fluorescent protein (GFP) genes (FIG. 2A). […] Pre- and post-transduction, and post-exposure GSH levels were measured with fluorometric assays by FACS analysis. […] The chemo selection of protected GFP-positive cells were evaluated by flow cytometry.

[2] = tested on: CEM cells; assay: GSH level by fluorometric assay, untransduced vs GCLM-transduced cells, pre- and post-busulfan exposure
Procedure: (§2) Jurkat, CEM, and Tf-1a cell lines were transduced with a lentiviral vector that expresses GCLM and green fluorescent protein (GFP) genes. Chemoprotection experiments were performed by incubating untransduced or mixed populations of (20% transduced, 80% untransduced) cells with busulfan in concentrations ranging from 0 to 200 μg/ml for 1, 2 or 4 hours. Cells were then incubated in busulfan-free culture for 24, 48, 72 and 96 h. Area under the concentration-time curve (AUC) was estimated by using trapezoidal rule from different times and concentrations of incubation. Pre- and post-exposure GSH levels were measured with fluorometric assays. Cell survival and proliferation at different time-points were measured by Nucleocounter NC-200 and flow cytometry using PI and 7-AAD staining protocols. The chemoselection of protected GFP+ cells were evaluated by flow cytometry. Baseline GSH levels and GCLM expression were also measured in primary human HSPCs harvested from 3 different donors with fluorometric and RT-PCR assays.
(§3) The Cells are incubated with busulfan (0, 1, 2, 4, 6, 8, 10, 20, 40, 60, 80, 100 and 200 μg/ml) in serum-free media (RPMI) for 1, 2 and 4 hours. The cells were then washed with ice-cold buffer (PBS+0.5% HSA+0.1% glucose). The washed cells were cultured in RPMI+20% FBS. 24, 48, 72, and 96 h time-point measurements were done.
(§4) Jurkat, CEM, and TF-1a cell lines were transduced with a lentiviral vector that expresses GCLM and green fluorescent protein (GFP) genes (FIG. 2A). Chemoprotection experiments were performed by incubating untransduced or mixed populations of (20% transduced, 80% untransduced) cells with busulfan in concentrations ranging from low (2 to 10 ug/ml) to moderate and high (10 to 200 ug/ml) for 1 or 2 hours. Cells were then incubated and viable cell counts were documented in busulfan-free culture for the 24, 48, 72 and 96-hr timepoints (FIG. 2B). Pre- and post-transduction, and post-exposure GSH levels were measured with fluorometric assays by FACS analysis. Cell survival and proliferation were measured daily by Nucleocounter NC-200 and flow cytometry using PI and 7-AAD staining protocols. The chemo selection of protected GFP-positive cells were evaluated by flow cytometry.

[3] = tested on: CEM cells; assay: Chemoprotection experiment: busulfan exposure, then viable cell count and proliferation in busulfan-free culture; settings: for expansion of viable transduced cells: CEM cells; for fold expansion in viable transduced cells: at 72 h
Procedure: as §2, §3, §4

[4] = tested on: CEM cells; assay: Chemoselection of protected GFP+ cells by flow cytometry in mixed populations (20% transduced, 80% untransduced)
Procedure: as §2, §3, §4

[5] = tested on: Jurkat cells; assay: GSH level by fluorometric assay, untransduced vs GCLM-transduced cells; settings: lentiviral GCLM/GFP transduction
Procedure: as §2, §1

[6] = tested on: TF-1a cells; assay: as above; settings: lentiviral GCLM/GFP transduction
Procedure: as §2, §1

For CS(=O)(=O)OCCCCOS(C)(=O)=O [busulfan, reference compound], the “dependence of cell death and proliferation on busulfan exposure” value ([1]; all cell cultures, AUC estimated by trapezoidal rule) was “AUC-dependent”, the “GSH in untransduced cells after busulfan exposure” value ([2]; untransduced cells) was “depleted” and the “sensitivity of untransduced cells to busulfan exposure” value ([3]; untransduced CEM cells compared with Jurkat and TF-1a) was “most sensitive”. The “survival of untransduced cells after busulfan” value ([3]; untransduced CEM cells, higher doses (10 and 20 μg/ml), by 96 hours) was “all dead”.

B1: GCLM: Heterologous human glutamate-cysteine ligase modifier subunit (SEQ ID NO: 1) overexpressed in cells via lentiviral vector co-expressing GFP (protein)
chain: MGTDSRAAKALLARARTLHLQTGNLLNWGRLRKKCPSTHSEELHDCIQKTLNEWSSQINPDLVREFPDVLECTVSHAVEKINPDEREEMKVSAKLFIVESNSSSSTRSAVDMACSVLGVAQLDSVIIASPPIEDGVNLSLEHLQPYWEELENLVQSKKIVAIGTSDLDKTQLEQLYQWAQVKPNSNQVNLASCCVMPPDLTAFAKQFDIQLLTHNDPKELLSEASFQEALQESIPDIQAHEWVPLWLLRYSVIVKSRGIIKSKGYILQAKRRGS
With B1 the “effect of GCLM overexpression on cell viability and proliferation” value ([1]; Jurkat, CEM and TF-1a cells, no busulfan) was “no effect”, the “purity of transduced CEM cells” value ([4]; 72 h of culture after 10 ug/ml busulfan for 1 h, starting from 20%) was 88% and the transduced cell population ([4]; CEM cells, 10 or 20 μg/ml busulfan, 1-hr or 2-hr exposure, by 96 hours, from 20% initial) was 100%. The “viable transduced cell count” value ([4]; CEM cells, 72 h of culture after 10 ug/ml busulfan for 1 h, starting from 30×10^3/ml) was 84000 mL⁻¹, the “transduced cells as share of the cultures” value ([4]; busulfan doses higher than 10 ug/ml or exposure longer than 1 h, after 72 h) was 100% and the transduced cell population ([4]; moderate levels of busulfan exposure, in 72-96 h) was 100%. For the same molecule, the “GSH level in transduced cells relative to untransduced cells after busulfan” value ([2]; CEM cells, different dose and time, 24-hr post busulfan exposure) was “at least 3.5 fold”, the “GSH level change between untransduced and transduced cells” value ([2]; CEM cells, lentiviral GCLM/GFP transduction) was 1.7 fold and the “GSH levels in transduced cells throughout the experiment” value ([2]; transduced cells, after busulfan exposure) was “remained stable”. The “expansion of viable transduced cells” value ([3]; 10 μg/ml busulfan, by 96 hours) was 5 fold, the “expansion of viable transduced cells” value ([3]; 20 μg/ml busulfan, by 96 hours) was 3 fold and the “protection (proliferation rate) against busulfan” value ([3]; GCLM-transduced CEM cells, lower doses of busulfan) was “at least 3.5 fold”. For the same molecule, the “fold expansion in viable transduced cells” value ([3]; busulfan-exposed transduced cells) was 2.8 fold, the “fold expansion in viable transduced cells” value ([3]; untreated (no busulfan) transduced control) was 3.2 fold and the “GSH level change between untransduced and transduced cells” value [5] was 2.1 fold. For the same molecule, the “GSH level change between untransduced and transduced cells” value [6] was 1.9 fold.
